The values below come from patent US20160168266A1 (SBI BIOTECH, published 2016).

First the molecules themselves.
T1: human phospholipase D4 (PLD4) protein (human, UniProt Q96BZ4 1-506)
T1 construct: The hybridoma FACS screening used CAL-1 cells; also called human PLD4
T1 sequence: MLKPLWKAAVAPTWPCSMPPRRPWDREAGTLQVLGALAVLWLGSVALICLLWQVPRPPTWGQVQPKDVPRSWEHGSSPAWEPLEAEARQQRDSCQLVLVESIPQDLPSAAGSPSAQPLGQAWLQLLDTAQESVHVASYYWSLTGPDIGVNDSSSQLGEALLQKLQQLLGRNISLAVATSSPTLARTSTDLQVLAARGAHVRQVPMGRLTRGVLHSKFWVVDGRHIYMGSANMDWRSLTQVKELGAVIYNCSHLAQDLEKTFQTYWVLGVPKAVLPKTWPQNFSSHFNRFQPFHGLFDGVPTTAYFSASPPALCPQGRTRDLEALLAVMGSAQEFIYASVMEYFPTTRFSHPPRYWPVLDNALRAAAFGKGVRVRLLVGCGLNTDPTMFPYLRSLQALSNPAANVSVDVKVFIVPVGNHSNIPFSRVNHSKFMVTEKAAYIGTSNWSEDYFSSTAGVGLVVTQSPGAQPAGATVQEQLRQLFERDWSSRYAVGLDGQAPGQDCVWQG

B1: anti-PLD4 mouse 10C3 antibody (antibody, mouse IgG2a, V domains shown)
VH: EVQLVESGGDLVRPGGSLKLSCAASGFSFSSYGMSWFRQTPDKRLEWVATISSGGSYIYYPESVKGRFTISRDNARNILYLQMSSLKSEDTAMYYCVRLYGGRRGYGLDYWGQGTSVTVSS
VL: EIVMTQAAFSNPVTLGTSASISCRSSKSLLHSDGITYLYWYLQKPGQSPQLLIYQMSNLASGVPDRFSSSGSGTDFTLRISRVEAEDVGVYYCAQNLELYTFGGGTKLEIKR
notes: Mouse IgG2a, kappa monoclonal antibody
B2: anti-PLD4 mouse 11D10 antibody (antibody, mouse IgG2b, V domains shown)
VH: EVQLVESGGDLVRPGGSLKLSCAASGFSFSSYGMSWFRQTPDKRLEWVATISSGGSYIYYPESVKGRFTISRDNARNILYLQMSSLKSEDTAMYYCVRLYGGRRGYGLDYWGQGTSVTVSS
VL: EIVMTQAAFSNPVTLGTSASISCRSSKSLLHSDGITYLYWYLQKPGQSPQLLIYQMSNLASGVPDRFSSSGSGTDFTLRISRVEAEDVGVYYCAQNLELYTFGGGTKLEIKR
notes: Mouse IgG2b, kappa monoclonal antibody with the same CDRs as 10C3
B3: anti-PLD4 mouse 8C11 antibody (antibody, mouse IgG2b, V domains shown)
VH: QVQLQQSGAELVKPGASVKLSCKASGYTFTSYYLYWVRQRPGQGLEWIGLINPTNSDTIFNEKFKSKATLTVDKSSSTAYMQLSSLTSEDSAVYYCTREGGYGYGPFAYWGQGTLVTVSA
VL: DVVMTQTPLSLPVSLGDQASISCTSSQTLVHSNGNTYLHWYLQKPGQSPKLLIYKVSNRFSGVPDRFSGSGSGTDFTLKISRVEAEDLGVYFCSHSTHVPFTFGSGTKLEIKR
notes: Mouse IgG2b, kappa monoclonal antibody
B4: chimeric 5B7 antibody (antibody, V domains shown)
VH: EVQLQQSGPELVKPGASVKISCKASGYTFTDYNLHWVKQSHGKSLEWIGYIYPYNGNTGYNQKFKRKATLTVDNSSGTVYMELRSLTSEDSAVYYCARGGIYDDYYDYAIDYWGQGTSVTVSS
VL: DIQMTQSPASLSVSVGETVAITCRASENIYSHIAWYQQKEGKSPQRLVYGATNLAHGVPSRFSGSGSGTQYSLKINSLQSEDFGSYYCQHFWGTPWTFGGGTKLEIKR
B5: chimeric 3B4 antibody (antibody, V domains shown)
VH: EVQLQQSGTVLSRPGASVTMSCKASGDSFTTYWMHWVKQRPGQGLEWIGAIYPGNSETSYNQKFKGKAKLTAVTSASTAYMEFTSLTNEDSAVYYCTGGYSDFDYWGQGTTLTVSS
VL: DILMTQSPSSMSVSLGDTVSITCHASQGIRSNIGWLQQKPGKSFKGLIFHGTNLEDGVPSRFSGRGSGADYSLTINSLESEDFADYYCVQYVQFPPTFGSGTKLEIRR
B6: chimeric 13D4 antibody (antibody, V domains shown)
VH: DVQLQESGPGLVKPSQSLSLTCSVTGYSITSHYYWTWIRQFPGNKLEWMGYISYDGSNNYNPSLKNRISITRDTSKNQFFLKLNSVTTEDTATYNCAREGPLYYGNPYWYFDVWGAGTTVTVSS
VL: DIQMTQTTSSLSASLGDRVTISCRASQDIDNYLNWYQQKPDGTVKLLIYYTSRLHSGVPSRFSGSGSGTDYSLTISNLEQEDVATYFCQQFNTLPRTFGGGTKLEIKR
B7: chimeric 13H11 antibody (antibody, V domains shown)
VH: DVQLQESGPGLVKPSQSLSLTCSVTGYSISSHYYWSWIRQFPGNRLEWMGYISYDGSNNYNPSLKNRISITRDTSKNQFFLKLNSVTTEDTATYNCAREGPLYYGNPYWYFDVWGAGTTVTVSS
VL: DIQMTQTTSSLSASLGGSVTISCRASQDIDNYLNWYQQKPDGTVKLLIYYTSRLHSGVPSRFSGSGSGTDYSLTISNLEQEDIATYFCQQFNTLPRTFGGGTKLEIKR
B8: anti-PLD4 chimeric 11G9.6 antibody (antibody, human IgG1, kappa, V domains shown)
VH: QVQLQQPGAELVKPGTSVKMSCKASGYTFTSYWMHWVKQRPGQGLEWIGDIYPGSDSTNYNEKFKSKATLTVDTSSSTAYMQLSSLTSEDSAVYYCARGGWLDAMDYWGQGTSVTVSS
VL: DIQMTQTTSSLSASLGDRVTISCRASQDISNYLNWYQQKPDGTVKLLIYYTSRLHSGVPSRFSGSGSGTDYSLTISNLEQEDIATYFCQQGNTLPWTFGGGTKLEIKR

In the first assay the target is T1, human phospholipase D4 (PLD4) protein. The assay is described as follows: FACS screening of hybridoma culture supernatant (CAL-1 cells).
On to B1, for which the binding result is given as “binds”.
For B2, the binding result was “binds”.
Regarding B3, the binding result was “binds”.

For another assay the target is unchanged. As to the kind of experiment: cell-based or functional assay.
As for B4, the “PLD4+ activated B cells after culture of PBMC with CpG2006 and the chimeric antibody, with control Ig treatment taken as 100%” value (from here on “PLD4+ activated B cells after culture … as 100%”) stood at 25.8%.
B5: the “PLD4+ activated B cells after culture … as 100%” value came to 70.2%.
As for B6, the “PLD4+ activated B cells after culture … as 100%” value stood at 56%.
Consider B7, for which the “PLD4+ activated B cells after culture … as 100%” value amounted to 55.3%.
In the case of B8, the “PLD4+ activated B cells after culture … as 100%” value amounted to 66.4%.
